Measured values as given in the supplement of paper PMC11908140.

B1: library; numbered along this chain (parent)
chain: MRKPRAAVGSGHRKQAASQEGRQKHAKNNSQAKPSACDGLARQPEEVVLQASVSSYHLFRDVAEVTAFRGSLLSWYDQEKRDLPWRRRAEDEMDLDRRAYAVWVSEVMLQQTQVATVINYYTGWMQKWPTLQDLASASLEEVNQLWAGLGYYSRGRRLQEGARKVVEELGGHMPRTAETLQQLLPGVGRYTAGAIASIAFGQATGVVDGNVARVLCRVRAIGADPSSTLVSQQLWGLAQQLVDPARPGDFNQAAMELGATVCTPQRPLCSQCPVESLCRARQRVEQEQLLASGSLSGSPDVEECAPNTGQCHLCLPPSEPWDQTLGVVNFPRKASRKPPREESSATCVLEQPGALGAQILLVQRPNSGLLAGLWEFPSVTWEPSEQLQRKALLQELQRWAGPLPATHLRHLGEVVHTFSHIKLTYQVYGLALEGQTPVTTVPPGARWLTQEEFHTAAVSTAMKKVFRVYQGQQPGTCMGSKRSQVSSPCSRKKPRMGQQVLDNFFRSHISTDAHSLNSAAQ

Variants of: B1
Test: 8OG:A repair function score (normalized; synonymous = 0, nonsense = -1) (normalized log-likelihood score); higher = more repair activity (WT-like)
Details: with 8OG:A DNA repair reporter (GFP) in HEK-293 MUTYH KO cells
How it was run: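 Lentiviral MUTYH cDNA NNN codon-scan libraries in HEK-293 MUTYH knockout cells (10 pg/ml doxycycline) were co-transfected with an 8OG:A GFP repair reporter plus mCherry. At 72 h, viable mCherry+ cells were sorted into GFP+ (repair) and GFP− bins, three replicates per tile, then tile amplicons were sequenced. Per-tile Rosace fitness scores became a normalized repair function score anchored on synonymous and nonsense distributions. Synonymous medians were set to 0 and nonsense to -1; variants under 300 counts per million at the start were removed.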

Variant | 8OG:A repair function score
MRKPRAAVGSGHRKQAASQEGRQKHAKNNSQAKPSACDGLARQPEEVVLQASVSSYHLFRDVAEVTAFRGSLLSWYDQEKRDLPWRRRAEDEMDLDRRAYAVWVSEVMLQQTQVATVINYYTGWMQKWPTLQDLASASLEEVNQLWAGLGYYSRGRRLQEGARKVVEELGGHMPRTAETLQQLLPGVGRYTAGAIASIAFGQATGVVDGNVARVLCRVRAIGADPSSTLVSQQLWGLAQQLVDPARPGDFNQAAMELGATVCTPQRPLCSQCPVESLCRARQRVEQEQLLASGSLSGSPDVEECAPNTGQCHLCLPPSEPWDQTLGVVNFPRKASRKPPREESSATCVLEQPGALGAQILLVQRPNSGLLAGLWEFPSVTWEPSEQLQRKALLQELQRWAFPLPATHLRHLGEVVHTFSHIKLTYQVYGLALEGQTPVTTVPPGARWLTQEEFHTAAVSTAMKKVFRVYQGQQPGTCMGSKRSQVSSPCSRKKPRMGQQVLDNFFRSHISTDAHSLNSAAQ [G401F] | -0.16
MRKPRAAVGSGHRKQAASQEGRQKHAKNNSQAKPSACDGLARQPEEVVLQASVSSYHLFRDVAEVTAFRGSLLSWYDQEKRDLPWRRRAEDEMDLDRRAYAVWVSEVMLQQTQVATVINYYTGWMQKWPTLQDLASASLEEVNQLWAGLGYYSRGRRLQEGARKVVEELGGHMPRTAETLQQLLPGVGRYTAGAIASIAFGQATGVVDGNVARVLCRVRAIGADPSSTLVSQQLWGLAQQLVDPARPGDFNQAAMELGATVCTPQRPLCSQCPVESLCRARQRVEQEQLLASGSLSGSPDVEECAPNTGQCHLCLPPSEPWDQTLGVVNFPRKASRKPPREESSATCVLEQPGALGAQILLVQRPNSGLLAGLWEFPSVTWEPSEQLQRKALLQELQRWAAPLPATHLRHLGEVVHTFSHIKLTYQVYGLALEGQTPVTTVPPGARWLTQEEFHTAAVSTAMKKVFRVYQGQQPGTCMGSKRSQVSSPCSRKKPRMGQQVLDNFFRSHISTDAHSLNSAAQ [G401A] | -0.317
MRKPRAAVGSGHRKQAASQEGRQKHAKNNSQAKPSACDGLARQPEEVVLQASVSSYHLFRDVAEVTAFRGSLLSWYDQEKRDLPWRRRAEDEMDLDRRAYAVWVSEVMLQQTQVATVINYYTGWMQKWPTLQDLASASLEEVNQLWAGLGYYSRGRRLQEGARKVVEELGGHMPRTAETLQQLLPGVGRYTAGAIASIAFGQATGVVDGNVARVLCRVRAIGADPSSTLVSQQLWGLAQQLVDPARPGDFNQAAMELGATVCTPQRPLCSQCPVESLCRARQRVEQEQLLASGSLSGSPDVEECAPNTGQCHLCLPPSEPWDQTLGVVNFPRKASRKPPREESSATCVLEQPGALGAQILLVQRPNSGLLAGLWEFPSVTWEPSEQLQRKALLQELQRWACPLPATHLRHLGEVVHTFSHIKLTYQVYGLALEGQTPVTTVPPGARWLTQEEFHTAAVSTAMKKVFRVYQGQQPGTCMGSKRSQVSSPCSRKKPRMGQQVLDNFFRSHISTDAHSLNSAAQ [G401C] | -0.381
MRKPRAAVGSGHRKQAASQEGRQKHAKNNSQAKPSACDGLARQPEEVVLQASVSSYHLFRDVAEVTAFRGSLLSWYDQEKRDLPWRRRAEDEMDLDRRAYAVWVSEVMLQQTQVATVINYYTGWMQKWPTLQDLASASLEEVNQLWAGLGYYSRGRRLQEGARKVVEELGGHMPRTAETLQQLLPGVGRYTAGAIASIAFGQATGVVDGNVARVLCRVRAIGADPSSTLVSQQLWGLAQQLVDPARPGDFNQAAMELGATVCTPQRPLCSQCPVESLCRARQRVEQEQLLASGSLSGSPDVEECAPNTGQCHLCLPPSEPWDQTLGVVNFPRKASRKPPREESSATCVLEQPGALGAQILLVQRPNSGLLAGLWEFPSVTWEPSEQLQRKALLQELQRWAEPLPATHLRHLGEVVHTFSHIKLTYQVYGLALEGQTPVTTVPPGARWLTQEEFHTAAVSTAMKKVFRVYQGQQPGTCMGSKRSQVSSPCSRKKPRMGQQVLDNFFRSHISTDAHSLNSAAQ [G401E] | 0.191
MRKPRAAVGSGHRKQAASQEGRQKHAKNNSQAKPSACDGLARQPEEVVLQASVSSYHLFRDVAEVTAFRGSLLSWYDQEKRDLPWRRRAEDEMDLDRRAYAVWVSEVMLQQTQVATVINYYTGWMQKWPTLQDLASASLEEVNQLWAGLGYYSRGRRLQEGARKVVEELGGHMPRTAETLQQLLPGVGRYTAGAIASIAFGQATGVVDGNVARVLCRVRAIGADPSSTLVSQQLWGLAQQLVDPARPGDFNQAAMELGATVCTPQRPLCSQCPVESLCRARQRVEQEQLLASGSLSGSPDVEECAPNTGQCHLCLPPSEPWDQTLGVVNFPRKASRKPPREESSATCVLEQPGALGAQILLVQRPNSGLLAGLWEFPSVTWEPSEQLQRKALLQELQRWADPLPATHLRHLGEVVHTFSHIKLTYQVYGLALEGQTPVTTVPPGARWLTQEEFHTAAVSTAMKKVFRVYQGQQPGTCMGSKRSQVSSPCSRKKPRMGQQVLDNFFRSHISTDAHSLNSAAQ [G401D] | 0.0297
MRKPRAAVGSGHRKQAASQEGRQKHAKNNSQAKPSACDGLARQPEEVVLQASVSSYHLFRDVAEVTAFRGSLLSWYDQEKRDLPWRRRAEDEMDLDRRAYAVWVSEVMLQQTQVATVINYYTGWMQKWPTLQDLASASLEEVNQLWAGLGYYSRGRRLQEGARKVVEELGGHMPRTAETLQQLLPGVGRYTAGAIASIAFGQATGVVDGNVARVLCRVRAIGADPSSTLVSQQLWGLAQQLVDPARPGDFNQAAMELGATVCTPQRPLCSQCPVESLCRARQRVEQEQLLASGSLSGSPDVEECAPNTGQCHLCLPPSEPWDQTLGVVNFPRKASRKPPREESSATCVLEQPGALGAQILLVQRPNSGLLAGLWEFPSVTWEPSEQLQRKALLQELQRWVGPLPATHLRHLGEVVHTFSHIKLTYQVYGLALEGQTPVTTVPPGARWLTQEEFHTAAVSTAMKKVFRVYQGQQPGTCMGSKRSQVSSPCSRKKPRMGQQVLDNFFRSHISTDAHSLNSAAQ [A400V] | -0.246
MRKPRAAVGSGHRKQAASQEGRQKHAKNNSQAKPSACDGLARQPEEVVLQASVSSYHLFRDVAEVTAFRGSLLSWYDQEKRDLPWRRRAEDEMDLDRRAYAVWVSEVMLQQTQVATVINYYTGWMQKWPTLQDLASASLEEVNQLWAGLGYYSRGRRLQEGARKVVEELGGHMPRTAETLQQLLPGVGRYTAGAIASIAFGQATGVVDGNVARVLCRVRAIGADPSSTLVSQQLWGLAQQLVDPARPGDFNQAAMELGATVCTPQRPLCSQCPVESLCRARQRVEQEQLLASGSLSGSPDVEECAPNTGQCHLCLPPSEPWDQTLGVVNFPRKASRKPPREESSATCVLEQPGALGAQILLVQRPNSGLLAGLWEFPSVTWEPSEQLQRKALLQELQRWTGPLPATHLRHLGEVVHTFSHIKLTYQVYGLALEGQTPVTTVPPGARWLTQEEFHTAAVSTAMKKVFRVYQGQQPGTCMGSKRSQVSSPCSRKKPRMGQQVLDNFFRSHISTDAHSLNSAAQ [A400T] | -0.0197
MRKPRAAVGSGHRKQAASQEGRQKHAKNNSQAKPSACDGLARQPEEVVLQASVSSYHLFRDVAEVTAFRGSLLSWYDQEKRDLPWRRRAEDEMDLDRRAYAVWVSEVMLQQTQVATVINYYTGWMQKWPTLQDLASASLEEVNQLWAGLGYYSRGRRLQEGARKVVEELGGHMPRTAETLQQLLPGVGRYTAGAIASIAFGQATGVVDGNVARVLCRVRAIGADPSSTLVSQQLWGLAQQLVDPARPGDFNQAAMELGATVCTPQRPLCSQCPVESLCRARQRVEQEQLLASGSLSGSPDVEECAPNTGQCHLCLPPSEPWDQTLGVVNFPRKASRKPPREESSATCVLEQPGALGAQILLVQRPNSGLLAGLWEFPSVTWEPSEQLQRKALLQELQRWQGPLPATHLRHLGEVVHTFSHIKLTYQVYGLALEGQTPVTTVPPGARWLTQEEFHTAAVSTAMKKVFRVYQGQQPGTCMGSKRSQVSSPCSRKKPRMGQQVLDNFFRSHISTDAHSLNSAAQ [A400Q] | -0.0826
MRKPRAAVGSGHRKQAASQEGRQKHAKNNSQAKPSACDGLARQPEEVVLQASVSSYHLFRDVAEVTAFRGSLLSWYDQEKRDLPWRRRAEDEMDLDRRAYAVWVSEVMLQQTQVATVINYYTGWMQKWPTLQDLASASLEEVNQLWAGLGYYSRGRRLQEGARKVVEELGGHMPRTAETLQQLLPGVGRYTAGAIASIAFGQATGVVDGNVARVLCRVRAIGADPSSTLVSQQLWGLAQQLVDPARPGDFNQAAMELGATVCTPQRPLCSQCPVESLCRARQRVEQEQLLASGSLSGSPDVEECAPNTGQCHLCLPPSEPWDQTLGVVNFPRKASRKPPREESSATCVLEQPGALGAQILLVQRPNSGLLAGLWEFPSVTWEPSEQLQRKALLQELQRWWGPLPATHLRHLGEVVHTFSHIKLTYQVYGLALEGQTPVTTVPPGARWLTQEEFHTAAVSTAMKKVFRVYQGQQPGTCMGSKRSQVSSPCSRKKPRMGQQVLDNFFRSHISTDAHSLNSAAQ [A400W] | -0.139
MRKPRAAVGSGHRKQAASQEGRQKHAKNNSQAKPSACDGLARQPEEVVLQASVSSYHLFRDVAEVTAFRGSLLSWYDQEKRDLPWRRRAEDEMDLDRRAYAVWVSEVMLQQTQVATVINYYTGWMQKWPTLQDLASASLEEVNQLWAGLGYYSRGRRLQEGARKVVEELGGHMPRTAETLQQLLPGVGRYTAGAIASIAFGQATGVVDGNVARVLCRVRAIGADPSSTLVSQQLWGLAQQLVDPARPGDFNQAAMELGATVCTPQRPLCSQCPVESLCRARQRVEQEQLLASGSLSGSPDVEECAPNTGQCHLCLPPSEPWDQTLGVVNFPRKASRKPPREESSATCVLEQPGALGAQILLVQRPNSGLLAGLWEFPSVTWEPSEQLQRKALLQELQRWYGPLPATHLRHLGEVVHTFSHIKLTYQVYGLALEGQTPVTTVPPGARWLTQEEFHTAAVSTAMKKVFRVYQGQQPGTCMGSKRSQVSSPCSRKKPRMGQQVLDNFFRSHISTDAHSLNSAAQ [A400Y] | -0.116
MRKPRAAVGSGHRKQAASQEGRQKHAKNNSQAKPSACDGLARQPEEVVLQASVSSYHLFRDVAEVTAFRGSLLSWYDQEKRDLPWRRRAEDEMDLDRRAYAVWVSEVMLQQTQVATVINYYTGWMQKWPTLQDLASASLEEVNQLWAGLGYYSRGRRLQEGARKVVEELGGHMPRTAETLQQLLPGVGRYTAGAIASIAFGQATGVVDGNVARVLCRVRAIGADPSSTLVSQQLWGLAQQLVDPARPGDFNQAAMELGATVCTPQRPLCSQCPVESLCRARQRVEQEQLLASGSLSGSPDVEECAPNTGQCHLCLPPSEPWDQTLGVVNFPRKASRKPPREESSATCVLEQPGALGAQILLVQRPNSGLLAGLWEFPSVTWEPSEQLQRKALLQELQRWSGPLPATHLRHLGEVVHTFSHIKLTYQVYGLALEGQTPVTTVPPGARWLTQEEFHTAAVSTAMKKVFRVYQGQQPGTCMGSKRSQVSSPCSRKKPRMGQQVLDNFFRSHISTDAHSLNSAAQ [A400S] | -0.189
MRKPRAAVGSGHRKQAASQEGRQKHAKNNSQAKPSACDGLARQPEEVVLQASVSSYHLFRDVAEVTAFRGSLLSWYDQEKRDLPWRRRAEDEMDLDRRAYAVWVSEVMLQQTQVATVINYYTGWMQKWPTLQDLASASLEEVNQLWAGLGYYSRGRRLQEGARKVVEELGGHMPRTAETLQQLLPGVGRYTAGAIASIAFGQATGVVDGNVARVLCRVRAIGADPSSTLVSQQLWGLAQQLVDPARPGDFNQAAMELGATVCTPQRPLCSQCPVESLCRARQRVEQEQLLASGSLSGSPDVEECAPNTGQCHLCLPPSEPWDQTLGVVNFPRKASRKPPREESSATCVLEQPGALGAQILLVQRPNSGLLAGLWEFPSVTWEPSEQLQRKALLQELQRWRGPLPATHLRHLGEVVHTFSHIKLTYQVYGLALEGQTPVTTVPPGARWLTQEEFHTAAVSTAMKKVFRVYQGQQPGTCMGSKRSQVSSPCSRKKPRMGQQVLDNFFRSHISTDAHSLNSAAQ [A400R] | -0.432
